Laboratory results reported in patent US20070292907A1, “Compositions and method for regulating ubiquitin-specific processing proteases” (priority 2005, published 2007).

Key:
Assay in all cases: covalent modification by UbVS (immunoblot of UbVS adducts)
USP14-ΔUBL (91-494) = biological target: T1, USP14-ΔUBL (91-494) (Homo sapiens, UniProt P54578); type: biochemical; conditions: both in the absence and presence of the 19S regulatory particle; FIG. 5C lanes 1 and 2
T1 construct: 3.5 μM full-length USP14 or USP14-AUBL (91-494) was incubated with or without 157 nM bovine 19S complex (PA700); GST (N); made in house
T1 sequence (P54578 91-494, stated change not applied): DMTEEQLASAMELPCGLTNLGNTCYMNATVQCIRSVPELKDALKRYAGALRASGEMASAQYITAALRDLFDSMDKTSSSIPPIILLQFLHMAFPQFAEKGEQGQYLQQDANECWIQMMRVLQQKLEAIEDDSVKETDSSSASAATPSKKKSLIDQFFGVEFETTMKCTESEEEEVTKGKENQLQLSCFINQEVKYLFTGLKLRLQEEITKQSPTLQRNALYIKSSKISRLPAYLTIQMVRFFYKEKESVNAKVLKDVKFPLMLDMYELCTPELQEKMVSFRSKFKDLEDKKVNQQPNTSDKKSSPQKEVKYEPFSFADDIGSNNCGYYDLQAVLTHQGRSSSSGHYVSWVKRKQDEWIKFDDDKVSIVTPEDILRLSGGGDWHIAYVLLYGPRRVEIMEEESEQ
Experimental: (§1) Ubiquitin vinylsulfone (UbVS) is a specific covalent inhibitor of a large subset of deubiquitinating enzymes, and thus can be used as an active site-directed probe for the detection of DUB activity (Borodovsky et al. (2001) supra). In order to examine the effect of proteasome association on the activity of USP14, the purified recombinant USP14 proteins were pre-incubated with or without the 19S RP and then assayed for covalent modification by UbVS.
(§2) UbVS was prepared as previously described (Borodovsky et al. (2001) supra). […] UbVS was then added to the sample to give approximately 1:1 stoichiometry with the 19S complex. Incubation was continued for another hour and then stopped by the addition of 2×SDS sample buffer. The reaction mixtures were resolved by 14% SDS-PAGE, transferred to nitrocellulose membrane, and the UbVS adducts were detected with mouse monoclonal anti-ubiquitin antibody (P4D1) (Santa Cruz).

full-length USP14 = biological target: T2, full-length USP14 (Homo sapiens, UniProt P54578); type: biochemical
T2 construct: 3.5 μM full-length USP14 or USP14-AUBL (91-494) was incubated with or without 157 nM bovine 19S complex (PA700); GST (N); made in house
T2 sequence (P54578 whole entry): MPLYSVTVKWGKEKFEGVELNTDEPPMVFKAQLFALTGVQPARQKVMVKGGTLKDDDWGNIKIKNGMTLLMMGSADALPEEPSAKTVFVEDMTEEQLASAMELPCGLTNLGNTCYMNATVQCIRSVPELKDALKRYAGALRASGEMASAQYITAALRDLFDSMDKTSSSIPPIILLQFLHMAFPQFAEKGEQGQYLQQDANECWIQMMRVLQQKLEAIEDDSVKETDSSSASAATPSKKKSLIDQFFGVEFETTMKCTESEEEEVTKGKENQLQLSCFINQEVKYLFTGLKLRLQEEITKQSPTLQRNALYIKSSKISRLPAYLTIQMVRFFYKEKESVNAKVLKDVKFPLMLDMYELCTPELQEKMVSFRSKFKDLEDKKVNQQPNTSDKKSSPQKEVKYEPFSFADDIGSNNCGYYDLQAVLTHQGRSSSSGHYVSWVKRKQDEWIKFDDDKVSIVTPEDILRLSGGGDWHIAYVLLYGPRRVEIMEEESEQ
Experimental: as §1, §2

UCH37 = biological target: T3, UCH37 (Bos taurus, UniProt Q9XSJ0); type: biochemical, bovine; conditions: reactions in the presence of 19S RP, relative to the USP14 adduct; FIG. 5C lanes 2 and 4
T3 construct: UCH37 was present in the reactions as a stoichiometric component of the 19S RP complex; from tissue; host or cells: bovine 19S complex (PA700), gift
T3 sequence (Q9XSJ0 1-328): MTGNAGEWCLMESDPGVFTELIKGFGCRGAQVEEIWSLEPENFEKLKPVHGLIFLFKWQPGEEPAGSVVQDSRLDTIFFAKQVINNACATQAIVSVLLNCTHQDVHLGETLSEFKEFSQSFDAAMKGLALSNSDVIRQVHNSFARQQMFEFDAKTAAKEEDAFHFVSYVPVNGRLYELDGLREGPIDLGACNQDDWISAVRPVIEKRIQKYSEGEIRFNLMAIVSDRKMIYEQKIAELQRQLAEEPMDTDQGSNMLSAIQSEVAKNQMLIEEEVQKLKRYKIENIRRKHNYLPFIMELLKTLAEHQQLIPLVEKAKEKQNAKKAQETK
T3 sequence (A1L5A6 1-407 partner): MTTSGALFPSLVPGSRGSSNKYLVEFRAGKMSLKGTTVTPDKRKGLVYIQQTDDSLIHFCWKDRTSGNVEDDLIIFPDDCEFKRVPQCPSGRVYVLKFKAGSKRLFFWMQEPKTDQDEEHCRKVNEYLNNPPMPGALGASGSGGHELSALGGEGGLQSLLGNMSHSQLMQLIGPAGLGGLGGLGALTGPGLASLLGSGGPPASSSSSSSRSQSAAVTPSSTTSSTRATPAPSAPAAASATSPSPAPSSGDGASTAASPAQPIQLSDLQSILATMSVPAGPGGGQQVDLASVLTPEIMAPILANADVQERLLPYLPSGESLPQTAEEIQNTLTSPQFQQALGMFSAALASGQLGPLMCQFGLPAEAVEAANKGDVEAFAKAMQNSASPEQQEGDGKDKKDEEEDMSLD
Experimental: Two factors contribute to this observation.
as §2

Ubiquitin vinylsulfone [UbVS]
activity toward UbVS (USP14-ΔUBL (91-494)): extremely low activity
USP14-UbVS complex formation (full-length USP14; full-length USP14 by itself, without 19S RP, FIG. 5C lane 3): no detectable USP14-UbVS complex formation
USP14-UbVS complex formation (full-length USP14; full-length USP14 with 19S regulatory particle added, FIG. 5C lane 4): strong USP14-UbVS band
UCH37-UbVS adduct detected (UCH37): only a trace amount
